Measurements taken from the supplement of paper PMC9112550, “Optimization of the antimicrobial peptide Bac7 by deep mutational scanning” (BMC Biology, 2022).

The sequences below were run on Escherichia coli TOP10 (assay: shrunken log2 fold change of peptide-encoding DNA abundance (4.5 h post-induction vs induction); higher = less antimicrobial activity (less host growth inhibition)). Settings: time post-induction: 4.5 h; library: site-saturation at positions 5, 18, 19, 20.
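Also: peptides expressed intracellularly from a pBAD plasmid library in pooled LB shake-flask culture, induced with 0.3% L-arabinose, DNA abundance read by NGS, three biological replicates, DESeq2 with apeglm shrinkage.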

Sequence | shrunken log2 fold change
RRIRRRPPRLPRPRPRPMHAPRP | 1.49
RRIRDRPPRLPRPRPRPPDEPRP | 0.00333
RRIRGRPPRLPRPRPRPFHYPRP | -0.383
RRIRVRPPRLPRPRPRPNARPRP | 0.102
RRIRNRPPRLPRPRPRPQIPPRP | 0.0549
RRIRIRPPRLPRPRPRPLKGPRP | -0.0404
RRIRARPPRLPRPRPRPTQAPRP | 1.06
RRIRWRPPRLPRPRPRPFAIPRP | 0.086
RRIRWRPPRLPRPRPRPIFHPRP | -0.101
RRIRLRPPRLPRPRPRPINTPRP | -0.881
RRIRWRPPRLPRPRPRPGAGPRP | 0.796
RRIRARPPRLPRPRPRPTCTPRP | 0.764
RRIRGRPPRLPRPRPRPYTVPRP | 0.0498
RRIRDRPPRLPRPRPRPHVQPRP | -0.0912
RRIRARPPRLPRPRPRPGHVPRP | 0.0499
RRIRCRPPRLPRPRPRPGTWPRP | 0.011
RRIRLRPPRLPRPRPRPNPDPRP | 0.0991
RRIRYRPPRLPRPRPRPTNHPRP | -0.709
RRIRMRPPRLPRPRPRPGRNPRP | 0.344
RRIRWRPPRLPRPRPRPYMMPRP | -0.842
RRIRGRPPRLPRPRPRPLQYPRP | -0.251
RRIRSRPPRLPRPRPRPQNTPRP | -0.522

Sequence | shrunken log2 fold change
RRIRCRPPRLPRPRPRPLCYPRP | -0.439
RRIRPRPPRLPRPRPRPPDEPRP | 0.444
RRIRKRPPRLPRPRPRPELRPRP | 1.12
RRIRARPPRLPRPRPRPMRTPRP | 0.802
RRIRERPPRLPRPRPRPWYNPRP | -0.174
RRIRCRPPRLPRPRPRPVWDPRP | -0.107
RRIRSRPPRLPRPRPRPHVLPRP | -0.54
RRIRTRPPRLPRPRPRPFIAPRP | -0.589
RRIRSRPPRLPRPRPRPCFTPRP | -0.521
RRIRRRPPRLPRPRPRPGQYPRP | -0.16
RRIRCRPPRLPRPRPRPTWFPRP | 0.141
RRIRYRPPRLPRPRPRPMREPRP | 0.529
RRIRIRPPRLPRPRPRPQPDPRP | -0.483
RRIRVRPPRLPRPRPRPVMWPRP | 0.365
RRIRKRPPRLPRPRPRPASFPRP | 0.559
RRIRMRPPRLPRPRPRPGNYPRP | -0.0658
RRIRQRPPRLPRPRPRPEDQPRP | 0.0199
RRIRTRPPRLPRPRPRPQCRPRP | -0.259
RRIRERPPRLPRPRPRPPEQPRP | 0.251
RRIRVRPPRLPRPRPRPDIAPRP | -0.211
RRIRLRPPRLPRPRPRPIGEPRP | -0.169
RRIRLRPPRLPRPRPRPISVPRP | -0.343

Sequence | shrunken log2 fold change
RRIRARPPRLPRPRPRPSFAPRP | 0.432
RRIRARPPRLPRPRPRPMTKPRP | 0.248
RRIRQRPPRLPRPRPRPYGWPRP | -0.112
RRIRCRPPRLPRPRPRPETQPRP | 0.0409
RRIRHRPPRLPRPRPRPYHPPRP | -0.00776
RRIRPRPPRLPRPRPRPYWEPRP | -0.0429
RRIRYRPPRLPRPRPRPPKDPRP | 0.0611
RRIRHRPPRLPRPRPRPLFPPRP | -0.102
RRIRDRPPRLPRPRPRPAWEPRP | 1.07
RRIRMRPPRLPRPRPRPRMVPRP | 0.125
RRIRGRPPRLPRPRPRPWNMPRP | -0.0271
RRIRSRPPRLPRPRPRPILWPRP | -0.0848
RRIRHRPPRLPRPRPRPKEQPRP | -0.00965
RRIRVRPPRLPRPRPRPSCHPRP | 0.292
RRIRLRPPRLPRPRPRPYCCPRP | -1.03
RRIRNRPPRLPRPRPRPRIYPRP | -0.0955
RRIRSRPPRLPRPRPRPHFQPRP | -0.275
RRIRERPPRLPRPRPRPSTLPRP | -0.999
RRIRFRPPRLPRPRPRPQCVPRP | -0.276
RRIRSRPPRLPRPRPRPSTKPRP | -0.00791
RRIRTRPPRLPRPRPRPQIEPRP | -0.107
RRIRSRPPRLPRPRPRPRSVPRP | 0.0603

Sequence | shrunken log2 fold change
RRIRPRPPRLPRPRPRPLSMPRP | -0.33
RRIRYRPPRLPRPRPRPTCLPRP | -0.821
RRIRVRPPRLPRPRPRPVCWPRP | 0.472
RRIRHRPPRLPRPRPRPKMAPRP | -0.0953
RRIRIRPPRLPRPRPRPRNGPRP | 0.103
RRIRCRPPRLPRPRPRPTFDPRP | -0.164
RRIRCRPPRLPRPRPRPVCRPRP | -0.0309
RRIRYRPPRLPRPRPRPGCPPRP | -0.085
RRIRDRPPRLPRPRPRPHEAPRP | 0.151
RRIRSRPPRLPRPRPRPWSNPRP | -0.0394
RRIRCRPPRLPRPRPRPQIDPRP | -0.0788
RRIRVRPPRLPRPRPRPDPPPRP | 1.27
RRIRTRPPRLPRPRPRPGAWPRP | 0.12
RRIRNRPPRLPRPRPRPYQPPRP | -0.31
RRIRSRPPRLPRPRPRPCYWPRP | -0.121
RRIRMRPPRLPRPRPRPLRRPRP | 1.94
RRIRWRPPRLPRPRPRPNWMPRP | -0.11
RRIRIRPPRLPRPRPRPMHLPRP | -0.22
RRIRHRPPRLPRPRPRPGERPRP | -0.134
RRIRWRPPRLPRPRPRPRFAPRP | 0.695
RRIRTRPPRLPRPRPRPKIIPRP | -0.211
RRIRERPPRLPRPRPRPCDAPRP | -0.171

Sequence | shrunken log2 fold change
RRIRCRPPRLPRPRPRPGYMPRP | -0.836
RRIRHRPPRLPRPRPRPFMSPRP | -0.301
RRIRIRPPRLPRPRPRPFGVPRP | -0.0635
RRIRGRPPRLPRPRPRPYSSPRP | -0.223
RRIRDRPPRLPRPRPRPTEEPRP | 0.355
RRIRYRPPRLPRPRPRPWRGPRP | 0.318
RRIRDRPPRLPRPRPRPVRCPRP | 0.339
RRIRNRPPRLPRPRPRPNLYPRP | -0.515
RRIRERPPRLPRPRPRPGRTPRP | 0.251
RRIRERPPRLPRPRPRPIYQPRP | -0.394
RRIRWRPPRLPRPRPRPCTEPRP | -0.0149
RRIRFRPPRLPRPRPRPKWIPRP | -0.699
RRIRNRPPRLPRPRPRPQFAPRP | -0.0842
RRIRYRPPRLPRPRPRPGTRPRP | -0.393
RRIRQRPPRLPRPRPRPEATPRP | 0.353
RRIRNRPPRLPRPRPRPLQSPRP | -0.0505
RRIRDRPPRLPRPRPRPRGEPRP | 0.267
RRIRQRPPRLPRPRPRPWAEPRP | -0.0482
RRIRFRPPRLPRPRPRPICVPRP | -0.161
RRIRIRPPRLPRPRPRPSQFPRP | -0.604
RRIRRRPPRLPRPRPRPRPMPRP | 0.76
